The values that follow come from patent EP2385124A2.

The target of the assay is GST-DLG1 PDZ domains 1-2 fusion protein (human) (UniProt Q12959). In words: competition G assay, 100 uM unlabeled 8-mer against 20 uM biotin-labeled AA2L on GST-DLG1.

“eight amino acid CLASP-2 peptide MTSSSSVV (unlabeled)” came in with a percent inhibition of more than 50%.
